Experiment [1] concerns the target T1, human FcRH5 expressed on stably transfected cells (BJAB.huFcRH5, OPM2.huFcRH5) (human, UniProt Q96RD9 16-977).
T1 construct: also called OPM2-FcRH5; BJAB-FcRH5
T1 chain: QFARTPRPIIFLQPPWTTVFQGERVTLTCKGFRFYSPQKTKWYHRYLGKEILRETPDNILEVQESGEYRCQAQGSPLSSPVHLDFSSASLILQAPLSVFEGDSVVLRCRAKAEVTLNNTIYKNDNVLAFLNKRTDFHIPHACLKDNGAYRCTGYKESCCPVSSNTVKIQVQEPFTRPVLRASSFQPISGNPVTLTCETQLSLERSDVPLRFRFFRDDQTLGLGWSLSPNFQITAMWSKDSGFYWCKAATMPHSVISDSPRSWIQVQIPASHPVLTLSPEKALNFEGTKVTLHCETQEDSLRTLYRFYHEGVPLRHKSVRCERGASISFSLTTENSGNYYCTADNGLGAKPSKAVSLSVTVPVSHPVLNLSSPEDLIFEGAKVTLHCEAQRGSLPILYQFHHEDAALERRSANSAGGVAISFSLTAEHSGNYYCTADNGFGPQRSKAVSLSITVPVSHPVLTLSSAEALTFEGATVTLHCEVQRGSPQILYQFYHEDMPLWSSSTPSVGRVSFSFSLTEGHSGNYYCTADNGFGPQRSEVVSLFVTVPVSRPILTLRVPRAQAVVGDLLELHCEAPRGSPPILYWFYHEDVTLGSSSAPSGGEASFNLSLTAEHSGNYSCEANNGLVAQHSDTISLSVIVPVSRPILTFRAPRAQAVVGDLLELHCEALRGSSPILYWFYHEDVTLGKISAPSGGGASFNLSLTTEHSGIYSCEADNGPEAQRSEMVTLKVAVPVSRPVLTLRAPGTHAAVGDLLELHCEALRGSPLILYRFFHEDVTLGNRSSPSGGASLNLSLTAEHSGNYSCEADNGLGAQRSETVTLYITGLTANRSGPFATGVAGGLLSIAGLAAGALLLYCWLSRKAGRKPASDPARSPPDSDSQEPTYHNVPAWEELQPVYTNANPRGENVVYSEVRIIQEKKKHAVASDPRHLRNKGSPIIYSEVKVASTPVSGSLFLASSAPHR
The experiment is described as follows: FACS (0.1, 1.0, 10 ug/mL ADC) on OPM2 cells stably expressing human FcRH5. The protocol: For FACS analysis of FcRH5 antibody drug conjugates (see Example 2), FcRH5 ADCs were added in increasing concentrations (0.1, 1.0, and 10 μg/mL) to 10⁶ OPM2 cells transfected with and stably expressing human FcRH5 or SVT2 cells transfected with and stably expressing cynomolgus FcRH5 in a 100 μL reaction volume. Samples were then incubated 1 hr at […] in FACS buffer (PBS, 0.5% BSA, 0.1% sodium azide) to inhibit interalization. After washing, cells were resuspended in FACS buffer and incubated 30 min at room temperature with 20 μL mouse anti-human IgG conjugated to phycoerythrin (Ms anti-Human-PE) secondary antibody in a 100 μL reaction volume. After washing, cells were fixed in 200 μL 2% paraformaldehyde/PBS and flow cytometery performed. The same procedure was used for HuIgG, however, at only the highest concentration (10 μg/mL). The HuIgG was used as an isotype control to set baseline PMT per cell line. Flow cytomery was performed on a BD FACSCalibur® and geometric mean fluorescence intensity was recorded for each sample. Recorded data was analyzed using FlowJo v8.4.5 software (see FIGS. 20-25).

In experiment [2] the target is T2, cynomolgus FcRH5 expressed on stably transfected SVT2 cells (cynomolgus monkey).
T2 construct: also called cyno FcRH5; cynoFcRH5
T2 chain: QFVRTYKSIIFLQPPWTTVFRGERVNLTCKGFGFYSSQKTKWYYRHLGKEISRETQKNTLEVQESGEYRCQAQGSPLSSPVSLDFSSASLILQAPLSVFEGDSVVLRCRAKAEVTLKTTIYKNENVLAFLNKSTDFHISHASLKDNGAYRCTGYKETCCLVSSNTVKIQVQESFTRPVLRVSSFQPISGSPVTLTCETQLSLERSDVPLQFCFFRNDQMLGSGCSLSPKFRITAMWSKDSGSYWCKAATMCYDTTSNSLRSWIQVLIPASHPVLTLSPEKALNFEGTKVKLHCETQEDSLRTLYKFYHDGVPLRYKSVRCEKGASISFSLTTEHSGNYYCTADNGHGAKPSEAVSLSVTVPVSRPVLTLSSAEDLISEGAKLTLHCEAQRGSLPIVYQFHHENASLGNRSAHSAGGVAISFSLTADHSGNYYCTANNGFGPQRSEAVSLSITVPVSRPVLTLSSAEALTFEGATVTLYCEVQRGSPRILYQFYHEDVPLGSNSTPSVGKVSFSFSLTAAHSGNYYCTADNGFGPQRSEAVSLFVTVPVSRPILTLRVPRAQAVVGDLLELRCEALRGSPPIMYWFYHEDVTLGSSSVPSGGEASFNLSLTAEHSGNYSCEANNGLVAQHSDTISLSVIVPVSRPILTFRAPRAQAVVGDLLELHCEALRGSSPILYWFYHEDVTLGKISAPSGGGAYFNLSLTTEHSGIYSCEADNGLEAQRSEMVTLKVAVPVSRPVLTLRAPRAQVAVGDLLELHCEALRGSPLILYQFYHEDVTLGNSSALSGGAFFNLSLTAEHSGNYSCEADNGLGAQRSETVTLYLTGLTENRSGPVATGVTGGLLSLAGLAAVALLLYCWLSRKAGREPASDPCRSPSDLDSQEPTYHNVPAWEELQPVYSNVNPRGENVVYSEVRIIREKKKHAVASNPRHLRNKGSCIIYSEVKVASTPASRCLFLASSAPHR
Put plainly: Scatchard analysis, 0.5 nM 125I-labelled antibody competed with the same unlabelled antibody (50 to 0.02 nM), SVT2.cyFcRH5 cells, 4 h at 4 C. The protocol:
(§1) To further determine binding of the FcRH5 murine antibodies and IgG clones, binding of iodinated IgG variants to OPM2 cells expressing human FcRH5 and SVT2 cells expressing cynomologous FcRH5, Scatchard analysis was performed.
(§2) For Scatchard analysis, 0.5 nM I¹²⁵ labeled murine or IgG clone anti-FcRH5 was competed against unlabeled murine or IgG clone anti-FcRH5, respectively, ranging from 50 to 0.02 nM (12 step 1:2 serial dilution) in the presence of a transfected OPM2 line stably expressing human-FcRH5 and a transfected SVT2 line stably expressing cynomologous-FcRH5. After a four hour incubation at 4° C., cells were washed and cell pellet counts were read by a gamma counter (1470 WIZARD Automatic Gamma Counter; Perkin Elmer, Walthem, Mass.). All points were done in triplicate and counted for 10 minutes. The average CPM was used for Kd calculation using the New Ligand (Genentech, South San Francisco, Calif.) program.

Experiment [3] has as its target T1, human FcRH5 expressed on stably …. The experiment is described as follows: Scatchard analysis, 0.5 nM 125I-labelled antibody competed with the same unlabelled antibody (50 to 0.02 nM), OPM2.huFcRH5 cells, 4 h at 4 C. The method, then:
as §1, §2

Experiment [4] shares this target. Put plainly: Scatchard analysis, 0.5 nM 125I-labelled antibody competed with the same unlabelled antibody (50 to 0.02 nM), BJAB.huFcRH5 cells, 4 h at 4 C.

Where a chain is given by its changes, count along the chain named. Names and notes keep the numbering of the source.

B1: Thio-ch10A8-HC(A118C)-MC-vc-PAB-MMAE (antibody, human IgG1, kappa, name in EU numbering)
light: DIVMTQSHKFMSTSVRDRVSITCKASQDVSTAVAWYQQKPGQSPKLLIYSASYRYTGVPDRFTGSGSGTDFTFTISSVQAEDLAVYYCQQHFSSPRTFGGGTKVEIKRTVAAPSVFIFPPSDEQLKSGTASVVCLLNNFYPREAKVQWKVDNALQSGNSQESVTEQDSKDSTYSLSSTLTLSKADYEKHKVYACEVTHQGLSSPVTKSFNRGEC
heavy: not shown
modifications: MC-vc-PAB-MMAE on the engineered Cys 118 (EU numbering)
notes: Antibody-drug conjugate of thio-ch10A8.HC
For the molecule B1, the binding result in experiment [1] was “binds”.

B2: chimeric anti-human FcRH5 antibody 10A8 (ch10A8) (antibody, human IgG1, kappa)
light: B1 light
heavy: not shown
notes: Murine 10A8 variable domains with human kappa and human IgG1 constant domains; also called chMAFcRH5 (10A8); chFcRH5 (10A8)
As to B2, the Kd (as a rule, the concentration at which binding is half-saturated) in experiment [2] amounted to 0.98 nM.

B3: cysteine engineered chimeric anti-FcRH5 10A8, heavy chain A118C (thio-ch10A8.HC) (antibody, human IgG1, kappa, name in EU numbering)
light: B1 light
heavy: not shown
notes: also called Thio-ch10A8-HC(A118C)
Consider B3, for which the values for the equilibrium dissociation constant (Kd) in experiment [3] and in experiment [2] were 0.85 nM and 1.57 nM, respectively.

B4: ch10A8-SPDB-DM4 (antibody, human IgG1, kappa)
light: B1 light
heavy: not shown
modifications: DM4 linked through the e-amino group of lysine using the SPDB linker (sites not given)
Take B4: the binding result in experiment [1] is “binds”.

B5: humanized anti-FcRH5 antibody 10A8 version 1 (hu10A8 v1) (antibody, human IgG1, V domains shown)
VL: DIQMTQSPSSLSASVGDRVTITCKASQDVSTAVAWYQQKPGKAPKLLIYSASYRYTGVPSRFSGSGSGTDFTLTISSLQPEDFATYYCQQHFSSPRTFGQGTKVEIKR
VH: EVQLVESGGGLVQPGGSLRLSCAASGFTFSSYAVSWVRQAPGKGLEWVATISSGGSLTFYLDSVRGRFTISRDNSKNTLYLQMNSLRAEDTAVYYCARPIPDYYALDYWGQGTLVTVSS
notes: Full-length human IgG1 with human kappa constant domain; also called 10A8-graft; hu10A8 graft
Turning to B5, the Kd in experiment [3] is 1.44 nM; in experiment [2] it was 3.04 nM.

B6: thio-hu10A8-HC(A118C)-MC-vc-PAB-MMAE (antibody, human IgG1, kappa)
heavy: not shown
light: DIQMTQSPSSLSASVGDRVTITCKASQDVSTAVAWYQQKPGKAPKLLIYSASYRYTGVPSRFSGSGSGTDFTLTISSLQPEDFATYYCQQHFSSPRTFGQGTKVEIKRTVAAPSVFIFPPSDEQLKSGTASVVCLLNNFYPREAKVQWKVDNALQSGNSQESVTEQDSKDSTYSLSSTLTLSKADYEKHKVYACEVTHQGLSSPVTKSFNRGEC
modifications: MC-vc-PAB-MMAE on the engineered Cys 118 (EU numbering)
notes: Antibody-drug conjugate (thioMab drug conjugate); also called thio-HC(A118C)-hu-anti-FcRH5 (10A8)-MC-vc-PAB-MMAE; Thio-HC(A118C)-hu-anti-FcRH5 (10A8)-vc-E
As to B6, the binding result in experiment [1] is reported as “binds”.

B7: thio-hu10A8 v1-HC(A118C) (antibody, human IgG1, kappa)
heavy: not shown
light: B6 light
notes: Cysteine engineered humanized IgG1 (thioMab), unconjugated; also called thio.hu10A8.HC; Thio-hu10A8-HC(A118C)
Molecule B7 came in with an equilibrium dissociation constant (Kd) in experiment [2] of 3.12 nM.

B8: thio-hu10A8-LC(V205C)-MC-vc-PAB-MMAE (antibody, human IgG1, kappa)
heavy: not shown
light: B6 light with V205C
modifications: MC-vc-PAB-MMAE on the engineered Cys 205 (Kabat numbering)
notes: Antibody-drug conjugate (thioMab drug conjugate); also called Thio-LC(L205C)-hu-anti-FcRH5 (10A8)-vc-E
As to B8, in experiment [1], the binding result is “binds”.

B9: thio-hu10A8 v1-LC(V205C) (antibody, human IgG1, kappa)
heavy: not shown
light: B6 light with V205C
notes: Cysteine engineered humanized IgG1 (thioMab), unconjugated; also called thio.hu10A8.LC; thio-hu10A8-LC(V205C)
On to B9, for which the Kd in experiment [2] was found to be 2.63 nM.

B10: murine anti-FcRH5 (10A8) monoclonal antibody (antibody, V domains shown)
VL: DIVMTQSHKFMSTSVRDRVSITCKASQDVSTAVAWYQQKPGQSPKLLIYSASYRYTGVPDRFTGSGSGTDFTFTISSVQAEDLAVYYCQQHFSSPRTFGGGTKVEIKR
VH: EVQLVESGGGLVKPGGSLKISCAASGFTFSSYAVSWVRQTPEKRLEWVATISSGGSLTFYLDSVRGRFTISRDNAKNTLYLQMSSLRSEDTAMYYCARPIPDYYALDYWGQGTSVTVSS
notes: Murine hybridoma IgG; also called 10A8.1.1; mu10A8
In the case of B10, the values for the Kd in experiment [4] and in experiment [2] were 0.44 nM and 2.74 nM, respectively.

For the origin of these results see patent US20100260748A1 (published 2010).
